Experimental data: article PMC3077247 (EMBO Reports, 2011)
Where a chain is given by its changes, count along the chain named.

T1: HECT domain of Nedd4, F707A (as used for fluorescence polarisation and SPR) (UniProt P46934-4, F707A)
T1 sequence: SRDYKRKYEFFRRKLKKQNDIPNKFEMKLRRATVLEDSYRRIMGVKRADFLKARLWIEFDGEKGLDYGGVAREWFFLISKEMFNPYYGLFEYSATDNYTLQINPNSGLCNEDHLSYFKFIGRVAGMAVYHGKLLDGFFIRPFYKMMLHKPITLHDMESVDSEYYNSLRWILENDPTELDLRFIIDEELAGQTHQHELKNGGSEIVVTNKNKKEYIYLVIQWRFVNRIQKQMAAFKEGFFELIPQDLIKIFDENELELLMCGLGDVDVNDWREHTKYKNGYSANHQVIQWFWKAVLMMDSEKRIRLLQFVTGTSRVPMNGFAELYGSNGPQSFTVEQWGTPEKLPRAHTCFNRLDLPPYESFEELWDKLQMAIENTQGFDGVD

T2: HECT domain of Nedd4, Y605A (as used for SPR) (UniProt P46934-4, Y605A)
T2 sequence: T1 sequence with Y87A, A189F

T3: GST-fusion of the HECT domain of Nedd4, wild type (UniProt P46934-4)
T3 sequence: T1 sequence with A189F

B1: E2 enzyme Ube2D3 (apo form) (enzyme)
chain: not shown
B2: HECT domain of Nedd4, wild type (as used for crystals, fluorescence polarisation, SPR and supplementary Fig S1) (domain or fragment)
chain: T1 sequence with A189F

How the values were obtained:
[1] = molecular target: T1, HECT domain of Nedd4, F707A (as used …); assay: SPR
[2] = molecular target: T2, HECT domain of Nedd4, Y605A (as used …); assay: SPR
[3] = molecular target: T3, GST-fusion of the HECT domain of Nedd4, …; assay: pull-down
ubiquitin (monomeric) = ubiquitin (monomeric) (UniProt P0CG48 1-76); assay: fluorescence polarisation

Binder | binding result [1] | binding result [2] | binding result [3] | Kd (ubiquitin (monomeric)) [µM]
B1 | binds | binds | binds | 
B2 |  |  |  | 11
